In IntAct's records for PubMed 31515488:

B1: Protein unc-45 homolog A (Homo sapiens), Q9H3U1 (parent)
chain: MTVSGPGTPEPRPATPGASSVEQLRKEGNELFKCGDYGGALAAYTQALGLDATPQDQAVLHRNRAACHLKLEDYDKAETEASKAIEKDGGDVKALYRRSQALEKLGRLDQAVLDLQRCVSLEPKNKVFQEALRNIGGQIQEKVRYMSSTDAKVEQMFQILLDPEEKGTEKKQKASQNLVVLAREDAGAEKIFRSNGVQLLQRLLDMGETDLMLAALRTLVGICSEHQSRTVATLSILGTRRVVSILGVESQAVSLAACHLLQVMFDALKEGVKKGFRGKEGAIIVDPARELKVLISNLLDLLTEVGVSGQGRDNALTLLIKAVPRKSLKDPNNSLTLWVIDQGLKKILEVGGSLQDPPGELAVTANSRMSASILLSKLFDDLKCDAERENFHRLCENYIKSWFEGQGLAGKLRAIQTVSCLLQGPCDAGNRALELSGVMESVIALCASEQEEEQLVAVEALIHAAGKAKRASFITANGVSLLKDLYKCSEKDSIRIRALVGLCKLGSAGGTDFSMKQFAEGSTLKLAKQCRKWLCNDQIDAGTRRWAVEGLAYLTFDADVKEEFVEDAAALKALFQLSRLEERSVLFAVASALVNCTNSYDYEEPDPKMVELAKYAKQHVPEQHPKDKPSFVRARVKKLLAAGVVSAMVCMVKTESPVLTSSCRELLSRVFLALVEEVEDRGTVVAQGGGRALIPLALEGTDVGQTKAAQALAKLTITSNPEMTFPGERIYEVVRPLVSLLHLNCSGLQNFEALMALTNLAGISERLRQKILKEKAVPMIEGYMFEEHEMIRRAATECMCNLAMSKEVQDLFEAQGNDRLKLLVLYSGEDDELLQRAAAGGLAMLTSMRPTLCSRIPQVTTHWLEILQALLLSSNQELQHRGAVVVLNMVEASREIASTLMESEMMEILSVLAKGDHSPVTRAAAACLDKAVEYGLIQPNQDGE
B2: BICD family-like cargo adapter 2 (Homo sapiens), A1A5D9 (parent)
chain: MSSPDGPSFPSGPLSGGASPSGDEGFFPFVLERRDSFLGGGPGPEEPEDLALQLQQKEKDLLLAAELGKMLLERNEELRRQLETLSAQHLEREERLQQENHELRRGLAARGAEWEARAVELEGDVEALRAQLGEQRSEQQDSGRERARALSELSEQNLRLSQQLAQASQTEQELQRELDALRGQCQAQALAGAELRTRLESLQGENQMLQSRRQDLEAQIRGLREEVEKGEGRLQTTHEELLLLRRERREHSLELERARSEAGEALSALRRLQRRVSELEEESRLQDADVSAASLQSELAHSLDDGDQGQGADAPGDTPTTRSPKTRKASSPQPSPPEEILEPPKKRTSLSPAEILEEKEVEVAKLQDEISLQQAELQSLREELQRQKELRAQEDPGEALHSALSDRDEAVNKALELSLQLNRVSLERDSLSRELLRAIRQKVALTQELEAWQDDMQVVIGQQLRSQRQKELSASASSSTPRRAAPRFSLRLGPGPAGGFLSNLFRRT
B3: Syntenin-2 (Homo sapiens), Q9H190 (parent)
chain: MSSLYPSLEDLKVDQAIQAQVRASPKMPALPVQATAISPPPVLYPNLAELENYMGLSLSSQEVQESLLQIPEGDSTAVSGPGPGQMVAPVTGYSLGVRRAEIKPGVREIHLCKDERGKTGLRLRKVDQGLFVQLVQANTPASLVGLRFGDQLLQIDGRDCAGWSSHKAHQVVKKASGDKIVVVVRDRPFQRTVTMHKDSMGHVGFVIKKGKIVSLVKGSSAARNGLLTNHYVCEVDGQNVIGLKDKKIMEILATAGNVVTLTIIPSVIYEHMVKKLPPVLLHHTMDHSIPDA
partner: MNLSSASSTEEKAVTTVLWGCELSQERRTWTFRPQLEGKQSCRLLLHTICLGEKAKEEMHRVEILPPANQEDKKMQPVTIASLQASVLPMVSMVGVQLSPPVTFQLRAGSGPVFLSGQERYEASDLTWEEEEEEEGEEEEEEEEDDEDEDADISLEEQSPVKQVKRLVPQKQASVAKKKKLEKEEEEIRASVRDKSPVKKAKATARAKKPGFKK
B4: Migration and invasion-inhibitory protein (Homo sapiens), Q5JXC2 (parent)
chain: MVEAEELAQLRLLNLELLRQLWVGQDAVRRSVARAASESSLESSSSYNSETPSTPETSSTSLSTSCPRGRSSVWGPPDACRGDLRDVARSGVASLPPAKCQHQESLGRPRPHSAPSLGTSSLRDPEPSGRLGDPGPQEAQTPRSILAQQSKLSKPRVTFSEESAVPKRSWRLRPYLGYDWIAGSLDTSSSITSQPEAFFSKLQEFRETNKEECICSHPEPQLPGLRESSGSGVEEDHECVYCYRVNRRLFPVPVDPGTPCRLCRTPRDQQGPGTLAQPAHVRVSIPLSILEPPHRYHIHRRKSFDASDTLALPRHCLLGWDIFPPKSEKSSAPRNLDLWSSVSAEAQHQKLSGTSSPFHPASPMQMLPPTPTWSVPQVPRPHVPRQKP
B5: SH2 domain-containing protein 4A (Homo sapiens), Q9H788 (parent)
chain: MLKQILSEMYIDPDLLAELSEEQKQILFFKMREEQIRRWKEREAAMERKESLPVKPRPKKENGKSVHWKLGADKEVWVWVMGEHHLDKPYDVLCNEIIAERARLKAEQEAEEPRKTHSEEFTNSLKTKSQYHDLQAPDNQQTKDIWKKVAEKEELEQGSRPAPTLEEEKIRSLSSSSRNIQQMLADSINRMKAYAFHQKKESMKKKQDEEINQIEEERTKQICKSWKEDSEWQASLRKSKAADEKRRSLAKQAREDYKRLSLGAQKGRGGERLQSPLRVPQKPERPPLPPKPQFLNSGAYPQKPLRNQGVVRTLSSSAQEDIIRWFKEEQLPLRAGYQKTSDTIAPWFHGILTLKKANELLLSTGMPGSFLIRVSERIKGYALSYLSEDGCKHFLIDASADAYSFLGVDQLQHATLADLVEYHKEEPITSLGKELLLYPCGQQDQLPDYLELFE
B6: Notch homolog 2 N-terminal-like protein A (Homo sapiens), Q7Z3S9 (parent)
chain: MCVTYHNGTGYCKCPEGFLGEYCQHRDPCEKNRCQNGGTCVAQAMLGKATCRCASGFTGEDCQYSTSHPCFVSRPCLNGGTCHMLSRDTYECTCQVGFTGKECQWTDACLSHPCANGSTCTTVANQFSCKCLTGFTGQKCETDVNECDIPGHCQHGGTCLNLPGSYQCQCLQGFTGQYCDSLYVPCAPSPCVNGGTCRQTGDFTFECNCLPETVRRGTELWERDREVWNGKEHDEN
partner: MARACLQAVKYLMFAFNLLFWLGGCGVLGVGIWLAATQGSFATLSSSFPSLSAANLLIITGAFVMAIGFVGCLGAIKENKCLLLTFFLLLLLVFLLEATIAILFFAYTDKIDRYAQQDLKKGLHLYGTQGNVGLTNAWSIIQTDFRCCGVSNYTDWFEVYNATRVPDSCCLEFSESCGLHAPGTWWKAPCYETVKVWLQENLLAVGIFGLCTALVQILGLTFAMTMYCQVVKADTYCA
B7: Protein FAM9B (Homo sapiens), Q8IZU0 (parent)
chain: MAAWGKKHAGKDPVRDECEERNRFTETREEDVTDEHGEREPFAETDEHTGANTKKPEDTAEDLTAKRKRMKMDKTCSKTKNKSKHALRKKQLKRQKRDYIHSLKLLNVLEEYITDEQKEEEEEEGEEEELIRIFQEQQKKWQQYRSVRRERLKEMKLLRDQFVKALEDFEDLCDRVFSDEDSELDN
partner: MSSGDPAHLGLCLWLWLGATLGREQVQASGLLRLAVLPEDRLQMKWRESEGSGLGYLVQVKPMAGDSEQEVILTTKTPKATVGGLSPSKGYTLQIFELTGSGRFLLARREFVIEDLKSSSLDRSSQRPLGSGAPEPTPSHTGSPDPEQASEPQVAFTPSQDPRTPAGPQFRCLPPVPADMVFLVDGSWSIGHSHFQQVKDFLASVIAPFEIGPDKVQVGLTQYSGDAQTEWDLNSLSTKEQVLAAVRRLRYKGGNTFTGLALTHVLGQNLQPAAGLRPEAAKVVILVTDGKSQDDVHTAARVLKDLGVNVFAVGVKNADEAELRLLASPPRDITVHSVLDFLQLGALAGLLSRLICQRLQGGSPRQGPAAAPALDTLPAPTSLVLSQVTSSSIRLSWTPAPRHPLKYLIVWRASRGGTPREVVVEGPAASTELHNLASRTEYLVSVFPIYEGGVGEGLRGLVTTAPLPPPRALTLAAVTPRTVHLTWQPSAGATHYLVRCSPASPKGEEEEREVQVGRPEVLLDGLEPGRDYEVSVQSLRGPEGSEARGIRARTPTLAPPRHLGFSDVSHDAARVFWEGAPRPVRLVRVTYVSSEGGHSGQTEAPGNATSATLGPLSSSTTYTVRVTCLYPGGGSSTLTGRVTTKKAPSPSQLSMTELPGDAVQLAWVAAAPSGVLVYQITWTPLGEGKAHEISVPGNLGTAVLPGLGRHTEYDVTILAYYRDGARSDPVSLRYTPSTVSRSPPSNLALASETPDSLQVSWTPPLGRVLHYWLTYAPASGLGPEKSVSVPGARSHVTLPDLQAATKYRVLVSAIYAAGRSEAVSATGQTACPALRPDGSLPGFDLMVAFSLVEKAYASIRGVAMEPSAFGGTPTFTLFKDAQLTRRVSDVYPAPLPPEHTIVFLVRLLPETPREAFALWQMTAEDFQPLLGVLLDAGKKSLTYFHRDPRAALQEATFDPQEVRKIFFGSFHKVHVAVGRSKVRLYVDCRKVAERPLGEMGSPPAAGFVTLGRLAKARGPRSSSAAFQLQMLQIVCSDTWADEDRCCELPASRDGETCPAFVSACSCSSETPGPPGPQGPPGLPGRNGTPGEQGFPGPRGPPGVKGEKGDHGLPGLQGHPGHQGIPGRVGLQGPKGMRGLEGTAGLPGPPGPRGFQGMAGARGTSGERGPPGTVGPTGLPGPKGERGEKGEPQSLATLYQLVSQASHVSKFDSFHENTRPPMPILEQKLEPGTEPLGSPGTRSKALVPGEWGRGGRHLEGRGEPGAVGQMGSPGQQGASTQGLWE
B8: Methylmalonyl-CoA epimerase, mitochondrial (Homo sapiens), Q96PE7 (parent)
chain: MARVLKAAAANAVGLFSRLQAPIPTVRASSTSQPLDQVTGSVWNLGRLNHVAIAVPDLEKAAAFYKNILGAQVSEAVPLPEHGVSVVFVNLGNTKMELLHPLGRDSPIAGFLQKNKAGGMHHICIEVDNINAAVMDLKKKKIRSLSEEVKIGAHGKPVIFLHPKDCGGVLVELEQA
partner: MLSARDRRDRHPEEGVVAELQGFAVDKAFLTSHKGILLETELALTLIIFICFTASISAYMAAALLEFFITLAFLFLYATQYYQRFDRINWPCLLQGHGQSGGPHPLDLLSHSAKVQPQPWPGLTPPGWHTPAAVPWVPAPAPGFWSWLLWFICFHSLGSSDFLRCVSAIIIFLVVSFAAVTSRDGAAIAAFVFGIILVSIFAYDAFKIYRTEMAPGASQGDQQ
B9: Syntenin-2 (Homo sapiens), Q9H190 (parent)
chain: B3 chain

Variants of: B1
Details: with trim1_human MID2, Q9UJV3
Chain of trim1_human MID2, Q9UJV3 (Q9UJV3 whole entry): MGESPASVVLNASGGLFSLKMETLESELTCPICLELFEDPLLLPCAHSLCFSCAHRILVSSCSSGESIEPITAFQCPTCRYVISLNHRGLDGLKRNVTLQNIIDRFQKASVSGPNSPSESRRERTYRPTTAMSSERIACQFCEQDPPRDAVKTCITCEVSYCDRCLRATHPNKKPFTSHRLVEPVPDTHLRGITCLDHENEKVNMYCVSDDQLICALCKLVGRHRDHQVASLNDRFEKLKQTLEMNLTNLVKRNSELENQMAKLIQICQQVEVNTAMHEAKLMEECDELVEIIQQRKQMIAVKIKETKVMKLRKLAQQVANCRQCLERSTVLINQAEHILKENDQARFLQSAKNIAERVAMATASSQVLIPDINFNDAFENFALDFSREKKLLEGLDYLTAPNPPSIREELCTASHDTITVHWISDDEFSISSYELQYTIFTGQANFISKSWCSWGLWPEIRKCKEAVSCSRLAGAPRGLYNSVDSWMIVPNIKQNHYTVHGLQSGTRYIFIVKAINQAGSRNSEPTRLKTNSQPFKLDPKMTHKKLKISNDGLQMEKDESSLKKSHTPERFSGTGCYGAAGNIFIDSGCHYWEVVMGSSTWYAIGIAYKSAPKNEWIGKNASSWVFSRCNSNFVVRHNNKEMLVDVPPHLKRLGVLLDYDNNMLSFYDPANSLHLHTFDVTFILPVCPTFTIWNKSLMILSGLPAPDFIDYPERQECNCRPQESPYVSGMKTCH

effect of a mutation on the interaction | Variant
with no effect | T796M

Variants of: B1
Details: with max_human MAX

effect of a mutation on the interaction | Variant
with no effect | Q251E

Variants of: B2
Details: with klc3_human KLC3, Q6P597
Chain of klc3_human KLC3, Q6P597 (Q6P597 whole entry): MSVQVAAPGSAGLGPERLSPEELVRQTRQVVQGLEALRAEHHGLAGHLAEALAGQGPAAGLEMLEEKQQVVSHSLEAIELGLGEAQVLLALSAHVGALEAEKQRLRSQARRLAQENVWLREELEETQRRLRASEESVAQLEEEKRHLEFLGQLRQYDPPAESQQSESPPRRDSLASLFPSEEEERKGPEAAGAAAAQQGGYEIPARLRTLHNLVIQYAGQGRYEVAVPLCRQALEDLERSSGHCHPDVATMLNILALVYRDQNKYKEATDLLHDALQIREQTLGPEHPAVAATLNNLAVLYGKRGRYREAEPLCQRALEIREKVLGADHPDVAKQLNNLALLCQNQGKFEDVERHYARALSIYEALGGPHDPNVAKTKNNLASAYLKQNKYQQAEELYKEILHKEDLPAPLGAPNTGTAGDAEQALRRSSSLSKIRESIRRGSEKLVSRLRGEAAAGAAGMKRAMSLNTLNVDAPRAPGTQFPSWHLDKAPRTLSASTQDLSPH

effect of a mutation on the interaction | Variant
with no effect | E58K

Variants of: B3
Details: with npm2_human NPM2, Q86SE8

effect of a mutation on the interaction | Variant
disrupting interaction strength | G242R
disrupting interaction strength | G225R
with no effect | V182M

Variants of: B4
Details: with stk16_human STK16, O75716
Chain of stk16_human STK16, O75716 (O75716 whole entry): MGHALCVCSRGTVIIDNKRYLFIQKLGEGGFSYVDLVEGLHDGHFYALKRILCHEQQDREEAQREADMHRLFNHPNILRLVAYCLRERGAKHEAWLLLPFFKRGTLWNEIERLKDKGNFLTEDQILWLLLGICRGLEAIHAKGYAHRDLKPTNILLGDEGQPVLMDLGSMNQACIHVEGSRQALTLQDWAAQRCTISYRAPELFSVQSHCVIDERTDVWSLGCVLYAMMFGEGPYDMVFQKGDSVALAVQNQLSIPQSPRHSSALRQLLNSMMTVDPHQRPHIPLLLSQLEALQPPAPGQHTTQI

effect of a mutation on the interaction | Variant
with no effect | R171C

Variants of: B5
Details: with tfp11_human TFIP11, Q9UBB9
Chain of tfp11_human TFIP11, Q9UBB9 (Q9UBB9 whole entry): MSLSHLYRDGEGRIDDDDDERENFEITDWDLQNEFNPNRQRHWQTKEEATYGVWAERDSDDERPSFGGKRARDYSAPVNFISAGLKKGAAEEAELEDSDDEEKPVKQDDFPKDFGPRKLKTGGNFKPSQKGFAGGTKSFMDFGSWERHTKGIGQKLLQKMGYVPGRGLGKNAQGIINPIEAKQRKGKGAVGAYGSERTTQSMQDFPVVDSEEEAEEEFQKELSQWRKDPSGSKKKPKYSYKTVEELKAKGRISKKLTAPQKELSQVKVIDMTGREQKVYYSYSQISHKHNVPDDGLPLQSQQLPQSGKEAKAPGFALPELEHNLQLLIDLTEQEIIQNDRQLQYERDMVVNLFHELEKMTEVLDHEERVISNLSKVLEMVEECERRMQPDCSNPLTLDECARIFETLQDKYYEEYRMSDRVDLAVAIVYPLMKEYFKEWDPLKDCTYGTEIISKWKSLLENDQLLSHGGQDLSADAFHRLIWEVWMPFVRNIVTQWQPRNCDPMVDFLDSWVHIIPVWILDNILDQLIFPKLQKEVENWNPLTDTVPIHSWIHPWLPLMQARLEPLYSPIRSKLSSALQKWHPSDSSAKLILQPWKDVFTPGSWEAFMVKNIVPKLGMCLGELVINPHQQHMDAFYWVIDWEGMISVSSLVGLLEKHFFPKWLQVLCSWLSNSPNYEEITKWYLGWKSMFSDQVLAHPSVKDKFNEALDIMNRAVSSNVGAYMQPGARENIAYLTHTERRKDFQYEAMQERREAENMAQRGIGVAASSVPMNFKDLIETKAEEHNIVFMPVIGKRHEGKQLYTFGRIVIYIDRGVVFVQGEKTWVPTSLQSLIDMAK

effect of a mutation on the interaction | Variant
with no effect | E216G
with no effect | K303R
with no effect | G263A

Variants of: B5
Details: with tacc1_human TACC1, O75410
Chain of tacc1_human TACC1, O75410 (O75410 whole entry): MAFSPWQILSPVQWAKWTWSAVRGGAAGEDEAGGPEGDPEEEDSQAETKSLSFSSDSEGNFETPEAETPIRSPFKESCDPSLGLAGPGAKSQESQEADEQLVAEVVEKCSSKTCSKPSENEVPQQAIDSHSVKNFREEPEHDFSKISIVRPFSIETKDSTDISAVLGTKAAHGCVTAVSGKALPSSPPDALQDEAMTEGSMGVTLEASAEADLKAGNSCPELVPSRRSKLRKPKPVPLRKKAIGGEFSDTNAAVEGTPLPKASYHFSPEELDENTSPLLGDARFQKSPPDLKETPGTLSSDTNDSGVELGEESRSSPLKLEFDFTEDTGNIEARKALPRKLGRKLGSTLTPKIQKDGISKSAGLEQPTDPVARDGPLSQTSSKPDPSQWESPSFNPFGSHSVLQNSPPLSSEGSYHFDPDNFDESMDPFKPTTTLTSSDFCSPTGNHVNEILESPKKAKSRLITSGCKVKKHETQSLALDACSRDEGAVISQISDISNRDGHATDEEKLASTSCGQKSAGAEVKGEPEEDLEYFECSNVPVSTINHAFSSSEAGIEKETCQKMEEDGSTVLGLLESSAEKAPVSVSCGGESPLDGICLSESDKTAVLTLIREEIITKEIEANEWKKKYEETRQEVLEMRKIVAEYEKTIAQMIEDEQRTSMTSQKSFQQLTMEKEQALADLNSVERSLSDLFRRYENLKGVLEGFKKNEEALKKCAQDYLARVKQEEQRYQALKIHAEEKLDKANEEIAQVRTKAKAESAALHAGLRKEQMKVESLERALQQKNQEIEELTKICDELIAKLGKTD

effect of a mutation on the interaction | Variant
with no effect | E216G
with no effect | K303R
with no effect | G263A

Variants of: B5
Details: with ldoc1_human LDOC1, O95751
Chain of ldoc1_human LDOC1, O95751 (O95751 whole entry): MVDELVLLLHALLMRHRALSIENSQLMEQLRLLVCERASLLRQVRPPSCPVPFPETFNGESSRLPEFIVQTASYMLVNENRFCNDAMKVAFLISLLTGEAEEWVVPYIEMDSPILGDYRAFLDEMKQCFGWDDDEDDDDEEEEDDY

effect of a mutation on the interaction | Variant
with no effect | E216G
with no effect | K303R
with no effect | G263A

Variants of: B6
Details: with tsn4_human TSPAN4, O14817

effect of a mutation on the interaction | Variant
with no effect | R74Q
with no effect | A115T

Variants of: B7
Details: with coka1_human COL20A1, Q9P218

effect of a mutation on the interaction | Variant
with no effect | R23H

Variants of: B8
Details: with cklf5_human CMTM5, Q96DZ9

effect of a mutation on the interaction | Variant
with no effect | A76V
with no effect | R143H

Variants of: B9
Details: with zch10_human ZCCHC10, Q8TBK6
Chain of zch10_human ZCCHC10, Q8TBK6 (Q8TBK6 whole entry): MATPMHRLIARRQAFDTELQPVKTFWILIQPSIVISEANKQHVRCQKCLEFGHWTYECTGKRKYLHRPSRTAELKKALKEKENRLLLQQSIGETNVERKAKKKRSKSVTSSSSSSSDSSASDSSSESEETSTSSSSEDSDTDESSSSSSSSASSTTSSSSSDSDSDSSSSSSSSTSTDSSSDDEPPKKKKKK

effect of a mutation on the interaction | Variant
disrupting interaction strength | G242R

Variants of: B9
Details: with t23o_human TDO2, P48775
Chain of t23o_human TDO2, P48775 (P48775 whole entry, looked up): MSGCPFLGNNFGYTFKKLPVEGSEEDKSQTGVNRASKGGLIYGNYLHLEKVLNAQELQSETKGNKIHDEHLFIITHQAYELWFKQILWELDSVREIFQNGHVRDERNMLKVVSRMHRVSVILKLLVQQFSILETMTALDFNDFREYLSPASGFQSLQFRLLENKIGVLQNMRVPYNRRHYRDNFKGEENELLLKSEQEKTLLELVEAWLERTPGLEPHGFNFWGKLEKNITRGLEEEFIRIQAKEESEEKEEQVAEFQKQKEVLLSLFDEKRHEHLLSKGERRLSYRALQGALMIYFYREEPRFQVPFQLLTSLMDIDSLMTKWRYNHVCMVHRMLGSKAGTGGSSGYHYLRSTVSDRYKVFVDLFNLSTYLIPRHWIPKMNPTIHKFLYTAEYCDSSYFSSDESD

effect of a mutation on the interaction | Variant
disrupting interaction strength | G242R

Variants of: B9
Details: with lyar_human LYAR

effect of a mutation on the interaction | Variant
disrupting interaction strength | G242R

Variants of: B9
Details: with ytdc1_human YTHDC1, Q96MU7

effect of a mutation on the interaction | Variant
disrupting interaction strength | G242R

Variants of: B9
Details: with FAM133A

effect of a mutation on the interaction | Variant
disrupting interaction strength | G242R
